Measured values: patent US20100068766A1, “COMPOSITION FOR CLEAVING AND/OR CONNECTING SINGLE STRAND DNA” (WASEDA UNIVERSITY, priority 2007, published 2010)

T1: Rad51B protein / Ev1 protein (Homo sapiens, UniProt O15315+Q9UI08)
T1 construct: in accordance with the protocols used in purification of the entire-length Ev1 protein; 6xHis (N, cleaved yes); made in house; host or cells: Ev1: E. coli BL21 (DE3) codon plus-RP
T1 sequence (Q9UI08 1-418 isoform Q9UI08-2): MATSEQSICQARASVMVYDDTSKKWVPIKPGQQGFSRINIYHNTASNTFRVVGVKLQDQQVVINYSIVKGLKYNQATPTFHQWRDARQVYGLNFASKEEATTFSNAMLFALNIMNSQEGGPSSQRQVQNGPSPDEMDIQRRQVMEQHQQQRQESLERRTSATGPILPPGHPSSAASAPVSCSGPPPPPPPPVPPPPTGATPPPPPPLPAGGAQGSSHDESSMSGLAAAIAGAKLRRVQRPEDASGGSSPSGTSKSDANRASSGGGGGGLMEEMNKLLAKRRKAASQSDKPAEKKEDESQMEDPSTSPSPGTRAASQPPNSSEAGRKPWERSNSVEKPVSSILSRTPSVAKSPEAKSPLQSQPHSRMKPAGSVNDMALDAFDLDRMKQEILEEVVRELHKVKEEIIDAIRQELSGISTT
T1 sequence (O15315 1-350 isoform O15315-1): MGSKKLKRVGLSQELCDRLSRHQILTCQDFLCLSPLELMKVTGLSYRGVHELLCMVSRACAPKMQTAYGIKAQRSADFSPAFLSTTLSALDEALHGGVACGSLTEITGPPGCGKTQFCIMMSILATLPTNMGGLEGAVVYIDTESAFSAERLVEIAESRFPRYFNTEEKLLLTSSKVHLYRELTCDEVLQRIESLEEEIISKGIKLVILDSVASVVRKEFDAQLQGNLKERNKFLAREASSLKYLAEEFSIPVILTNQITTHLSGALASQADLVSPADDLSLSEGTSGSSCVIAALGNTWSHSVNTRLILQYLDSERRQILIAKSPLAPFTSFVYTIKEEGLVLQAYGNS

B1: Ev1 (1-221) mutant: Ev1 fragment of amino acid residues 1-221, comprises EVH1 and a proline-rich domain (protein, UniProt Q9UI08 1-221, looked up, fragment)
chain: MSEQSICQARASVMVYDDTSKKWVPIKPGQQGFSRINIYHNTASNTFRVVGVKLQDQQVVINYSIVKGLKYNQATPTFHQWRDARQVYGLNFASKEEATTFSNAMLFALNIMNSQEGGPSSQRQVQNGPSPDEMDIQRRQVMEQHQQQRQESLERRTSATGPILPPGHPSSAASAPVSCSGPPPPPPPPVPPPPTGATPPPPPPLPAGGAQGSSHDESSMS
B2: Ev1 protein: human Ev1 protein (NCBI accession No. AAF21709), recombinant from E. coli, His tag removed (protein)
chain: T1 sequence (Q9UI08 1-418 isoform Q9UI08-2)

Legend:
[1] = tested on: φ×174 or M13 mp18 circular single-stranded DNA; experiment: Assay of catenation of single-stranded DNA; format: biochemical; conditions: 4 μM protein; 20 μM circular single-stranded DNA; 1 mM MgCl2; 37° C.
Method: (§1) A φ×174 or M13 mp18 circular single-stranded DNA (20 μM) was incubated at 37° C. in 20 mM HEPES-NaOH (pH 7.5), 1 mM DTT, 1 mM MgCl2, and 0.1 mg/ml BSA. Thereafter, the sample was subjected to a deproteination treatment with 0.2% SDS and 1.3 mg/ml proteinase K. The obtained product was separated by 0.9% agarose gel electrophoresis, and a DNA band was then stained with SYBR Gold (Invitrogen).

Ev1 protein = experiment: Influence of Rad51B or Rad51 on catenation of single-stranded DNA by the Ev1 protein; format: biochemical; conditions: 4 μM Ev1 mutant plus 4 μM Rad51B protein
Method: Lanes 1 and 5 indicate the results of control experiments in which neither the Ev1 nor the Rad51B protein was used. Lanes 2 and 6 indicate the results of experiments that were carried out using a 4 μM Rad51B protein in the absence of the Ev1 protein. Lanes 3 and 7 indicate the results of experiments that were carried out using a 4 μM Ev1 protein in the absence of the Rad51B protein. Lanes 4 and 8 indicate the results of experiments that were carried out using a 4 μM Ev1 protein and a 4 μM Rad51B protein. Further, lanes 1-4 indicate the results of experiments that were carried out in the presence of ATP, and lanes 5-8 indicate the results of experiments that were carried out in the absence of ATP. […] Lanes 1 and 5 indicate the results of control experiments in which neither the Ev1 nor the Rad51 protein was used. Lanes 2 and 6 indicate the results of experiments that were carried out using a 4 μM Rad51 protein in the absence of the Ev1 protein. Lanes 3 and 7 indicate the results of experiments that were carried out using a 4 μM Ev1 protein in the absence of the Rad51 protein. Lanes 4 and 8 indicate the results of experiments that were carried out using a 4 μM Ev1 protein and a 4 μM Rad51 protein. Further, lanes 1-4 indicate the results of experiments that were carried out in the presence of ATP, and lanes 5-8 indicate the results of experiments that were carried out in the absence of ATP.
The Rad51B protein was mixed in a concentration of 0.5 to 8 μM with a 4 μM Ev1 protein, and the activity was then measured. Lane 1 indicates the results of a control experiment in which neither the Rad51B protein nor the Ev1 protein was added, and lane 8 indicates the results of a control experiment in which a 8 μM Rad51B protein was added and no Ev1 protein was added. Lanes 2-7 indicate the results of experiments in which the Rad51B protein was added in concentrations of 0 μM, 0.5 μM, 1.0 μM, 2.0 μM, 4.0 μM, and 8.0 μM, respectively, in the presence of 4 μM Ev1.
as §1

[2] = tested on: φ×174 circular single-stranded DNA; experiment: DNA binding assay (single-stranded DNA); conditions: Ev1 0.2-3.2 μM; 40 μM φ×174 circular single-stranded DNA; 37° C., 15 minutes
Method: (§2) Subsequently, the binding ability of the Ev1 protein to DNA was analyzed. The Ev1 protein was mixed with a φ×174 circular single-stranded DNA (40 μM) or a φ×174 supercoiled double-stranded DNA (10 μM) in 10 μl of a reaction solution (20 mM HEPES (pH 7.5), 1 mM DTT, 1 mM MgCl2, and 100 mg/ml BSA), and the mixture was then reacted at 37° C. for 15 minutes. The reaction product was analyzed by 0.8% agarose gel electrophoresis (3 V/cm, 3 hours) using a 1×TAE (40 mM Tris-acetate and 1 mM EDTA) buffer. A band of DNA was stained with ethidium bromide (FIG. 3).

[3] = tested on: φ×174 supercoiled double-stranded DNA; experiment: DNA binding assay (double-stranded DNA); conditions: Ev1 0.2-3.2 μM; 10 μM φ×174 supercoiled double-stranded DNA; 37° C., 15 minutes
Method: as §2

[4] = tested on: φ×174 supercoiled double-stranded DNA; experiment: Activity of Ev1 on supercoiled double-stranded DNA; format: biochemical; conditions: 4 μM Ev1; 10 μM φ×174 supercoiled and nicked double-stranded DNA
Method: Lanes 1 and 2 indicate the results obtained using a φ×174 circular single-stranded DNA. Lanes 3 and 4 indicate the results obtained using a M13 mp18 circular single-stranded DNA. In addition, lanes 1 and 3 indicate the results of control experiments in which no Ev1 protein was used, and lanes 2 and 4 indicate the results of experiments in which the Ev1 protein was used. […] A φ×174 circular single-stranded DNA (20 μM, lanes 1-3), or φ×174 supercoiled and nicked double-stranded DNA molecules (10 μM, lanes 4-6) were used to examine the influence of Ev1 (4 μM, lanes 2 and 5) and Escherichia coli-derived topoisomerase type I (5 units, lanes 3 and 6). Lanes 1 and 4 indicate the results of control experiments in which no Ev1 protein was used.
as §1

[5] = target: T1, Rad51B protein / Ev1 protein; experiment: Pull-down assay using Ev1- or Rad51B-bound beads; format: binding; conditions: Affi-Gel 10 beads, 10 μg protein, room temperature, 150 minutes
Method: Thereafter, the obtained mixture was incubated at 4° C. overnight. The Affi-Gel 10-Ev1 beads were washed 3 times with 500 μl of washing buffer 1 (20 mM potassium phosphate (pH 8.5), 30% glycerol, 700 mM NaCl, 5 mM 2-mercaptoethanol, and 0.05% Triton X-100). The Affi-Gel 10-Rad51B beads were washed 3 times with washing buffer 2 (20 mM HEPES-NaOH (pH 7.3), 30% glycerol, 90 mM NaCl, 2 mM 2-mercaptoethanol, 0.1% Triton X-100, 2 mM ammonium sulfate, and 0.1 mM EDTA). Thereafter, a 50% suspension of such Affi-Gel 10-protein was prepared, and it was then preserved at 4° C.
In order to carry out a binding assay, an Affi-Gel 10-protein suspension (30 μl) was incubated with 10 μg of an Ev1 or Rad51B protein at room temperature for 150 minutes. Affi-Gel 10-Ev1 beads were washed 4 times with 100 μl of buffer 1 (20 mM potassium phosphate (pH 8.5), 30% glycerol, 700 mM NaCl, 5 mM 2-mercaptoethanol, and 0.3% Triton X-100). Affi-Gel 10-Rad51B beads were washed 4 times with 100 μl of buffer 2 (20 mM HEPES-NaOH (pH 7.3), 30% glycerol, 90 mM NaCl, 2 mM 2-mercaptoethanol, 2 mM ammonium sulfate, 0.1 mM EDTA, and 0.35% Triton X-100). An SDS-PAGE sample treatment buffer (2×) was directly mixed with the washed beads, and the obtained mixture was then subjected to a heat treatment at 100° C. for 2 minutes. […]

| Molecule | ssDNA catenation activity (multimer formation of circular single-stranded DNA) [1] | ssDNA catenation activity with Rad51B protein added (Ev1 protein) | binding to single-stranded DNA [2] | binding to supercoiled double-stranded DNA [3] | change of supercoiled double-stranded DNA [4] | binding of Ev1 protein to Rad51B (pull-down) [5] |
| --- | --- | --- | --- | --- | --- | --- |
| B1 | did not exhibit such ssDNA catenation activity | no activity was detected | – | – | – | – |
| B2 | the circular single-stranded DNA formed a multimer | – | efficiently binds | efficiently binds | the supercoiled double-stranded DNA was not particularly changed | directly binds to Rad51B |
